Experimental data as given in article PMC6358098.

Target: recombinant protruding (P) domain of Macrobrachium rosenbergii nodavirus capsid protein (MrNV-CP) (Macrobrachium rosenbergii nodavirus)
Experiment: SEC; HiPrep 16/60 Sephacryl S-200 HR, Tris-HCl buffer (20 mM Tris-HCl, 100 mM NaCl, pH 7.6); elution profile overlaid with those of standard protein markers

Question: With “recombinant protruding (P) domain of Macrobrachium rosenbergii nodavirus capsid protein (MrNV-CP) (domain or fragment)” as the substance, how does the stoichiometry N read?
Answer: 2
